Key:
[1] = target: thiostrepton resistance RNA methyltransferase (Tsr) (Streptomyces azureus) (UniProt P18644); assay: SEC
[2] = target: thiostrepton resistance RNA methyltransferase (Tsr) (Streptomyces azureus) (UniProt P18644); assay: native gel or EMSA

Substance: thiostrepton resistance RNA methyltransferase (Tsr) (from UniProt P18644 1-269) (enzyme)
- stoichiometry N [1]: 2
- stoichiometry N [2]: 2

Source: PMC2719339
